{
  "source": "patent US20190119357A1",
  "about": "“MESSENGER RIBONUCLEIC ACIDS FOR THE PRODUCTION OF INTRACELLULAR BINDING POLYPEPTIDES AND METHODS OF USE THEREOF” (ModernaTX, Inc., priority 2015, published 2019)",
  "key": {"[1]": {"test": "Survival of mice treated with MC3 LNP formulations of mRNA with or without miR-122 binding site", "assay_type": "in vivo", "text": "Negative controls included mRNA encoding SQT alone or SQT with a miR-122 binding site. Constitutively active caspase 6 was used as a positive control. An LNP containing a non-translatable factor IX cap 0 mRNA was used to control for mRNA and lipid effects that might be independent of the proteins encoded by the modified mRNAs. […] This dose was 10 times greater than a dose of mRNA encoding SQT-PUMA-BH3 that killed 40% of mice."}, "BCL-2": {"target": "T1, BCL-2 (Homo sapiens, UniProt P10415)", "T1 construct": "endogenous in cells; host or cells: cells transfected with SQT-BH3 mRNA (HeLa by context)", "T1 sequence (P10415 whole entry)": "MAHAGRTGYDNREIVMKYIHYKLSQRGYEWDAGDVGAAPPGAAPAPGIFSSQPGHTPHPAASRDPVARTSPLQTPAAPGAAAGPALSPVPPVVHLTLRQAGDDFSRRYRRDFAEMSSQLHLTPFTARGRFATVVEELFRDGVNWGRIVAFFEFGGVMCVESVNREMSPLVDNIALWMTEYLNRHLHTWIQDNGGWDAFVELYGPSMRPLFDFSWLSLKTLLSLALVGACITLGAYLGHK", "test": "Co-immunoprecipitation after mRNA transfection", "assay_type": "binding", "conditions": "within two hours after mRNA transfection"}, "Hep3B SC tumors": {"test_system": "Hep3B SC tumors", "test": "Combination with sorafenib in SCID mice bearing Hep3B SC tumors", "assay_type": "in vivo", "conditions": "mmRNA with miR122 binding site, 1.5 mg/kg IV weekly alone, three weeks, end of study", "method": "SCID mice bearing Hep3B SC tumors (tumor size range 140-227 mm^3; average=183 mm^3) were dosed over a three week period with a combination of 0.5% methyl cellulose daily and SQT IV at 1.5 mg/kg alone weekly (Days 1, 8 and 15; Group 1), Sorafenib (in 0.5% methyl cellulose) at 10 mg/kg orally daily alone (Group 2), mmRNA encoding SQT-PUMA-BH3 (comprising a miR122 binding site) weekly at 1.5 mg/kg IV alone (Group 3) or a combination of mmRNA encoding SQT-PUMA-BH3 (with miR122 binding site) at 1.5 mg/kg IV weekly with sorafenib at 10 mg/kg orally daily (Group 4; 10 animals per group)."}, "Hep3B cells [2]": {"test_system": "Hep3B cells", "test": "Sorafenib combination, YOYO-3 apoptosis on IncuCyte ZOOM", "assay_type": "cell-based", "method": "To determine the effect of SQT-BH3 constructs in combination with the protein tyrosine kinase inhibitor Sorafenib on liver cells, 20,000 Hep3B cells/well in a 96 well plate were treated with increasing amounts of sorafenib tosylate (Selleck Chemicals) and transfected with LNPs containing SQT-PUMA-BH3 (68 pM) or SQT-Bad-BH3 (550pM)."}, "BCL-XL": {"target": "T2, BCL-XL (Homo sapiens, UniProt Q07817)", "T2 construct": "endogenous in cells; host or cells: cells transfected with SQT-BH3 mRNA (HeLa by context)", "T2 sequence (Q07817 whole entry)": "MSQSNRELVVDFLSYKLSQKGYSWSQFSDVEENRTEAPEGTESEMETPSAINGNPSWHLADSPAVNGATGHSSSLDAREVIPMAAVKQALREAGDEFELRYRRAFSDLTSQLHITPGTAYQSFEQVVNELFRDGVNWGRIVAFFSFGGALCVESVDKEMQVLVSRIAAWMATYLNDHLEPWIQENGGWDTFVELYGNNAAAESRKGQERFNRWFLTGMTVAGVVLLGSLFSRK", "test": "Co-immunoprecipitation after mRNA transfection", "assay_type": "binding", "conditions": "within two hours after mRNA transfection"}, "[3]": {"test_system": "primary mouse hepatocytes", "test": "Sorafenib combination in primary mouse hepatocytes", "assay_type": "cell-based", "conditions": "SQT-PUMA-BH3 205 pM or 1100 pM, SQT-Bad-BH3 549 pM or 1100 pM, sorafenib 0-10 uM", "method": "Similar combination experiments were performed with primary mouse hepatocytes, treated with SQT-PUMA-BH3 (205 pM or 1100 pM) or SQT-Bad-BH3 (549 pM or 1100 pM) in combination with sorafenib (0-10 μM). […] Thus, normal primary liver cells are spared by the combination treatment, indicating the combination treatment can selectively kill liver cancer cells over normal liver cells."}, "HeLa cells": {"test_system": "HeLa cells", "test": "PARP-1 cleavage by SDS-PAGE and Western blotting after transfection of mRNAs encoding SQT-BH3 constructs", "assay_type": "cell-based", "conditions": "from anti-FLAG and anti-GFP Western blotting", "text": "The cleavage of PARP-1 was detected by the appearance of a faster-migrating band and concomitant loss of the full-length band by SDS-PAGE and Western blotting. Western blotting with anti-actin antibodies served as a loading control."}, "Hep3B cells [4]": {"test_system": "Hep3B cells", "test": "Cell death by YOYO-3 with MC3-formulated LNPs", "assay_type": "cell-based", "conditions": "relatively high concentration", "method": "The efficacy of mRNAs encoding SQT-BH3 constructs in inducing cell death was tested both in hepatocellular carcinoma cell lines as well as in primary hepatocytes using lipid nanoparticle (LNP)-formulated constructs. Hep3B cells were treated with varying doses (0.78 ng to 50 ng) of MC3-formulated LNPs in the presence of YOYO-3 (Life Technologies), a DNA dye that is taken up preferentially by dead cells that is used to measure the extent of cell death. MC3 lipid nanoparticles included MC3 50%, DSPC 10%, Cholesterol 38.5%, PEG-DMG 1.5%, N:P ˜5.5."}, "systemic TF1a tumors": {"test_system": "systemic TF1a tumors", "test": "Repeat study in the TF1a-SCID model with survival endpoint", "assay_type": "in vivo", "method": "In this repeat study, tumor growth inhibition (TGI) was the primary efficacy over the first 4 weeks of the study and survival was the primary efficacy endpoint over the second 4 weeks of the study. […] Animals were dosed as follows: PBS (0.1 ml/20 g one time per week) IV (Group 1), cytarabine IV at 2 mg/kg three times per week (Group 2), LNPs containing mRNA encoding Green Fluorescent Protein (GFP) at 3 mg/kg one time per week (Group 3) and LNPs containing mRNA encoding SQT-PUMA-BH3 (comprising a miR122 binding site) at 3 mg/kg one time per week (Group 4).\nMice were dosed intravenously for four weeks, with animals in Group 4 being dosed for eight weeks (i.e., weekly dosing up to eight weeks).\nIn this repeat study, tumor growth inhibition (TGI) was again used as a primary endpoint to quantify efficacy with BLI being used as a surrogate for tumor burden. Bioluminescence Imaging (BLI) was measured weekly out to at least Day 61 post disease induction. The mean BLI results at Day 33 and Day 61 are shown in FIGS. 23A and 23B, respectively.\nThe survival of the mice over eight weeks was monitored and the percent survival of the mice in the study was assessed."}, "primary hepatocytes": {"test_system": "primary hepatocytes", "test": "Apoptosis induction by MC3 LNP-formulated mRNAs in primary hepatocytes cultured in vitro", "assay_type": "cell-based"}},
  "note": "“Also recorded” adds a separate entry of the source.",
  "data": [
    {"molecule": "SQT-PUMA-BH3: mRNA (SEQ ID NO: 49, FLAG) encoding SQT scaffold with PUMA BH3 domain in N-terminus, fully modified with 1-methyl-pseudouridine (nucleic acid, FLAG tag, 1-methyl-pseudouridine; Synthetic SQT-PUMA-BH3 mRNA sequence with FLAG epitope tag) ATGATCCCAAGAGAAGAACAGTGGGCACGCGAAATTGGAGCTCAACTCAGACGGATGGCCGACGACCTGAACGCCCAGTACGAGCGGCGGGGACTCTCAGAAGCGAAGCCTGCCACCCCCGAAATCCAGGAAATCGTCGACAAGGTCAAGCCGCAGCTTGAGGAAAAGACCAACGAGACTTACGGAAAACTGGAGGCCGTGCAGTATAAGACCCAAGTGTTGGCCTCCACCAACTACTACATTAAGGTCCGCGCCGGCGATAACAAGTACATGCACCTGAAGGTGTTCAATGGTCCTCCGGGACAGAACGCGGACAGGGTGCTGACTGGCTACCAAGTGGACAAGAACAAGGACGACGAGCTGACGGGCTTCGACTACAAGGATGATGATGACAAA", "values": [
      {"measurement": "mice killed", "setting": "[1]; mRNA without miR-122 binding site, dose 10 times lower than 1 mg/kg", "value": 40, "unit": "%"},
      {"measurement": "toxicity / tolerable dose / survival", "setting": "[1]; mice, MC3 LNP formulations, 0.1-3 mg/kg", "value": "very toxic over a range of doses"},
      {"measurement": "death of the treated animals, time", "setting": "[1]; mice, MC3 LNP, mRNA without miR-122 binding sites, range of doses", "value": "≤ 5", "unit": "h"},
      {"measurement": "survival rate", "setting": "[1]; mice, lowest dose of 0.1 mg/kg, mRNA without miR-122 binding sites", "value": "approximately 60%"},
      {"measurement": "interaction with BCL-2 by co-immunoprecipitation", "setting": "BCL-2", "value": "to a lesser extent"},
      {"measurement": "tumor growth inhibition (TGI)", "setting": "Hep3B SC tumors", "value": 28, "unit": "%"},
      {"measurement": "nature of combination effect with sorafenib", "setting": "Hep3B cells [2]; SQT-PUMA-BH3 68 pM or SQT-Bad-BH3 550pM", "value": "synergistic effect"},
      {"measurement": "apoptosis (YOYO-3), combination with sorafenib vs sorafenib alone", "setting": "Hep3B cells [2]; SQT-PUMA-BH3 68 pM or SQT-Bad-BH3 550pM in LNPs, increasing sorafenib tosylate", "value": "increased apoptosis of the liver cells as compared to treatment with sorafenib alone"},
      {"measurement": "interaction with BCL-XL by co-immunoprecipitation", "setting": "BCL-XL", "value": "able interact"},
      {"measurement": "apoptosis in combination with sorafenib", "setting": "[3]", "value": "neither SQT-BH3 construct, in combination with sorafenib, caused apoptosis"},
      {"measurement": "cell death of transfected cells", "setting": "HeLa cells", "value": "underwent cell death"},
      {"measurement": "apoptosis and cell death (YOYO-3)", "setting": "Hep3B cells [4]", "value": "both induced apoptosis and cell death; also recorded: kills Hep3B cells at higher concentrations"},
      {"measurement": "efficacy and timing of cell killing, comparison", "setting": "Hep3B cells [4]", "value": "showed a modest increase in both the efficacy and timing of cell killing compared to SQT-Bim-BH3"},
      {"measurement": "percent body weight change / tolerability", "setting": "systemic TF1a tumors", "value": "did not significantly impact body weight"},
      {"measurement": "tumor growth (BLI)", "setting": "systemic TF1a tumors; 3 mg/kg one time per week, 3 mg/kg", "value": "showed marked tumor growth regression as compared to both PBS and LNP controls; also recorded: most effective treatment for inhibiting tumor growth, showing greater efficacy than the cytarabine SOC control"},
      {"measurement": "median survival", "setting": "systemic TF1a tumors; post-implant, 3 mg/kg one time per week", "value": "median survival had not yet been reached"},
      {"measurement": "PARP-1 cleavage", "setting": "primary hepatocytes; LNPs", "value": "also induced PARP-1 cleavage in primary hepatocytes"},
      {"measurement": "apoptosis (YOYO-3 dye uptake and fluorescence) as a function of time", "setting": "primary hepatocytes; MC3-LNP-formulated", "value": "induce apoptosis"}
    ]}
  ]
}
